According to a protein production outcome set (Wang et al. 2014):

test: label from the status in PepcDB records

Row | Sequence | protein production
1 | MVRVDQNLFNEVMYLLDELSQDITVPKNVRKVAQDSKAKLSQENESLDLRCATVLSMLDEMANDPNVPAHGRTDLYTIISKLEALSKS | not failed
2 | MVRYPLEPVLSIKKDRVDRAEKVVKEKRRLLELEQEKLRERESERDKVKNHYMQKIRQLREQLDDGTTSDAILKMKAYIKVVAIQLSEEEEKVNKQKENVLAASKELERAEVELTKRRKEEEKTRLHKEEWMKEALKEEARQEEKEQDEMGQLLHQLHKQKQRESGEN | failed
3 | MVSANTKPLSEFKTGEFVQIEKIQLEGTMKRRLLDLGFIPGATIKVLQRSPLGDPVAYQVSNTTIALRKEESSLIFGVLIGDDFRLEHHHHHH | not failed
4 | MVSAPASASSSPASSSFQSFFWQAAARPRAEPKRQALKRITLMTTDKTSPYEIHDDRFRHLIVGNAELEELYSGCRWAEGPVWFADLNCLLFSDIPNERMLRWVPDGGISVFRQPSNFTNGNTRDRQGRLVSCEHGGRRVTRTEVDGSITVLADSYGGKRLNSPNDVVVKSDGSVWFTDPTYGILSDYEGYKAEPEQKTRNVYRLDPATGKIDIAIDDFVQPNGLAFSPDETKLYVADSSYSHDISRPRHIRVFDVVDGVRLANGREFCNLDNGLPDGFRLDTAGNLWTSAGDGVHCFAPDGRLIGKIKVPQTVANLTFGGPKKNRLFITATKSLYSVYVAATGAQTPLEHHHHHH | not failed
5 | MVSDADASTSSSSIDIMPSANIQNDVPEPSVHTSHRRTRKPAYLQDYYCHSVASLTIHDISQFLSYEKVSPLYHSFLVCIAKAKEPSTYNEAKEFLVWCGAMDDEIGAMETTHTWEICTLPPNKKPIGCKWVYKIKYNSDGTIERYKARLVAKGYTQQEGIDFIETFSPVCKLTSVKLILAISAIYNFTLHQLDISNAFLNGDLDEEIYMKLPPGYAARQGDSLPPNAVCYLKKSIYGLKQASRQWFLKFSVTLIGFGFVQSHSDHTYFLKITATLFLCVLVYVDDIIICSNNDAAVDELKSQLKSCFKLRDLGPLKYFLGLEIARSAAGINICQRKYALDLLDETGLLGCKPSSVPMDPSVTFSAHSGGDFVDAKAYRRLIGRLMYLQITRLDISFAVNKLSQFSEAPRLAHQQAVMKILHYIKGTVGQGLFYSSQAEMQLQVFSDASFQSCKDTRRSTNGYCMFLGTSLISWKSKKQQVVSKSSAEAEYRALSFATDEMMWLAQFFRELQLPLSKPTLLFCDNTAAIHIATNAVFHERTKHIESDCHSVRERSVYQATLSYSFQAYDEQDGFTEYLSPILRGTIMYIVSMFGLAGLEALICFIFLFLFSFLTSFKASAQNPFYLNHDCPNRTTYSSNSTYSTNLKTLLSSFASRNASYSTGFQNIRAGQTPDRVTGLFLCRGDLSPEVCSNCVAFSVNESLTRCPNQREAVFYYEECILRYSHKNFLSTVTYEGELIMRNPNNISSIQNQRDQFIDLVQSNMNQAANEAANSSRKFSTIKTELTSLQTLYGLVQCTPDLARQDCFSCLTSSINRMMPLFRIGARQFWPSCNSRYELYAFYNETAIGTPSPPPLFPGSTPPLTSPSIPGKSGNSTVLVVAIVVLAVLLFIALVGYCFLAQRTKKTFDTASASEVGDDMATADSLQLDYRTIQTATNDFAESNKIGRGGFGEVYKGTFSNGKEVAVKRLSKNSRQGEAEFKTEVVVVAKLQHRNLVRLLGFSLQGEERILVYEYMPNKSLDCLLFDPTKQTQLDWMQRYNIIGGIARGILYLHQDSRLTIIHRDLKASNILLDADINPKIADFGMARIFGLDQTQDNTSRIVGTYGYMAPEYAMHGQFSMKSDVYSFGVLVLEIISGRKNSSFDESDGAQDLLTHTWRLWTNRTALDLVDPLIANNCQNSEVVRCIHIGLLCVQEDPAKRPTISTVFMMLTSNTVTLPVPRQPGFFIQSSPVKDPTDSDQSTTTKSTPASIDDELITDLYPR | failed
6 | MVSGKVLKEPASGFMFMDTLDRGVKGYAGGWLVRGKRYNCIVETGAGAAVPLWLAGLKQAGIPLESIRWILLTHVHLDHAGGAGELLRHLPNARIGIHPLGVRHILDPQRLLSHAKVVWEKDFDLLGPMLPAPAERVVELGDGEIIEIDDVRRIKVLYTPGHTSHHVAFFEESTRGVFSGDALGAFFRGKHPFGEYVSMPGVSPPKGDIPAYVQSVERIAKLSPRRIYATHFGLWEPAMPYILSATSQIITISDLCRDVFYGGGGLQDFLSRAATLLASVRQSTRGQVELEKNYFSMAKAVWNYVVAEKGGESSPG | failed
7 | MVSKRLTGAVALLFLAAGAAGAAGLTVKEQLGKDIFFDTNLSINGNQSCADCHAPEAGWTGPTSEVNAHGAVYEGSIAGRFGNRKPPSSAYATTAPILKYIRQGGGMFVGGNFWDGRATGEKLGNPAADQAQGPFLNPLEQGLPDSACVVHRVCTATYGTAMETLWPGSCAIAWPADVAAACATEGTVVNLDAPNRAASDLAYDYIALAIAAYEGSTESNAFTSKYDAFLAGKAFLTPEERRGLTLFNGKAKCARCHVNTGRAPLFTDYTYDNLGVPRNSENPFYESAFNPLGINWIDQGLGGFLASRIDYSRFATANLGKHKVPTLRNVDKKTSPDFVKAFGHNGYFKSLKEIVHFYNTRDVLPTCAPGSPGEKVTCWPEPELALTMNTTELGNLKLSDAEEDALVAFMKTLTDGYQP | failed
8 | MVSNIDHKAMEALLRGQGCANNLKILLENGEISSVSTEPLIHTILDSFSLALSFMDSPNHPPYHESSSHNMASHMSRRSSKQKLCVAEGLVNYNHDSRTMCPNDGFTWRKYGQKTIKASAHKRCYYRCTYAKDQNCNATKRVQKIKDNPPVYRTTYLGKHVCKAFAVHDDTYSSTMIRFDQVVPEPIMPQLTTIDHQVITVEENSAEHIMNQECDINDYLVDDDPFWASQFPPFPSSDTMFLENISAFD | failed
9 | MVSNSSITFKEFVDYWFEAYASTAVKPSTQKRYRQLLKPALRAIGNKPLNKVKPLDIQNIYIALAGTQSNCTILKLHRLLHEIFKHAQMWEYISDNPVKKVVPPTPEKKVFDLEHHHHHH | failed
10 | MVSPQGVIVARAIISCGVASKKPFYRDQTMETDFSVHSHKGKGSLMRRKPALRLLCSAALAAALAIGAGASPGFAETKAKPEDKAVTFDPGKVNTFSGAFLAGRNADVDQDYPTAISLYKKALEYDPANSEIRQRLMIAELLSGNFEAGAKIADSMKDDTSVERVTTIVRGLDAIKDKEFTKAEKILKYTGPNDLDRMVNTLLTAWARAGSGKPKEALALVNNMKGPGWISIFQKYNAAAIALVSGNTEAARKSLNEAVTDREGGATASDTYMRAVMALARLEASAGNKQKALDAIAVGDTFAPNYAPLKALREAIEKGEKPEQQITNAVEGAASVMFSIAGALNREGAEEIVTLYLQTSRALDPKSPDTLILLGGLAEAMKQPERAITFYREVPKDSPMHRISELQLGLTLAQTGKVEESRKHLLSLLESDPKDIRSYLAYGSVLSDAKDYKAMAENYDKAVEVIGAVPQKSDWSVFFQRGIAYERLKQWDKAEPNFKRALELNPEQPQVLNYLGYSWVDKGINLDEGMKMISRAVELRPNDGYIVDSLGWAHYRLGDFDQSVTELERAIELKAGDPTINDHLGDAYWRVGRKIEAVYQWNRALIGDNDDVDKAKVKEKIANGLPPVEKDAENTAKKDVAPQPPAPPAPATPTPDKKS | failed
11 | MVSRDFDRDKRLLTARQFSAVFDSPTGKVPGKHVLLLARENGLDHPRLGLVIGKKNVKLAVQRNRLKRLIRESFRHNQETLAGWDIVVIARKGLGELENPELHQQFGKLWKRLLRNRPRTESPADAPGVAD | not failed
12 | MVSSVLEVSHVFCCPNRVRGALSWNTGPGGLLAFGTSCSVVLYDPQKKVVITNLNGHTARVNCLQWIRTEDGSPSNELVSGGSENRVIHWELENNQVLKSVRLQGHEGPVCAVHAIYQSGPSEGEQHALIASAASDSTVRIWSKKGSEVKYLQTLSFRDGFVLSVCLAILPGTNVPVLACGDDDCRIHLYIQQDDQFQKALSLCGHEDWIRGVEWATFGRDLFLASCSQDCLIRIWRLYMKPASFETKDGSLRLKENTFTIKDGGVRTTVAVTLETVLAGHENWVNAVHWQPSFYKDGVLQQPVRLLSASMDKTMILWAPDEESGVWLEQVRVGEVGGNTLGFYDCQFGENGTMIIAHAFHGALHLWKQSTVNPRQWAPEIVISGHFDGVQDLMWDPEGEFIITTSTDQTTRLFAPWKKKDQKDRSQVTWHEIARPQIHGYNIKCLAMIDRFQFVSGADEKVLRVFSAPRNFVENFSVISRQSLSHMLCDDQDLPEGATVPALGLSNKALFQGDIASQPFEEDELISPAFGSPQVTFQPAVLNEPPTEDHLLQNTLWPEIQKLYGHGYEIVCVACNNSKTLLASACKASQKEHAAIILWSTASWKQVQSLAFHTLTVTQMTFSPDDKFLLAVSRDRTWSLWKRQDATSSEFDPFFSLFAFTNKITSVHSRIIWSCDWSPDNKYFFTGSRDKKVVVWGECKSSHNPMEHPIRPCSSILDVGSSVTAVSVCPVLNPAQRYIVAIGLESGKICIYSWNKTNQEINDWTSCVETNPSQSHSLGIRRLCWKSCSDDDDDDDDDDTEQSEEGPEWLHFASCGEDHTVKIYRVNRRAL | failed
13 | MVSTRTHANGPADAGRTRLLFAAEIFPMNVFSRYLIRHLFLGFAAAAGLLLPLFTTFNLINELDDVSPGGYRWTQAVLVVLMTLPRTLVELSPFIALLGGIVGLGQLSKNSELTAIRSMGFSIFRIALVALVAGILWTVSLGAIDEWVASPLQQQALQIKSTATALGEDDDITGNMLWARRGNEFVTVKSLNEQGQPVGVEIFHYRDDLSLESYIYARSATIEDDKTWILHGVNHKKWLNGKETLETLDNLAWQSAFTSMDLEELSMPGNTFSVRQLNHYIHYLQETGQPSSEYRLALWEKLGQPILTLAMILLAVPFTFSAPRSPGMGSRLAVGVIVGLLTWISYQIMVNLGLLFALSAPVTALGLPIAFVLVALSLVYWYDRQH | failed
14 | MVTALARPEQTMQELAFRTLLYRYFFFDWLFKDASRGDLRERSAAWRFNQAHAHWLLTYLRRWVWCGALFCLLGGSIELMLSAPVLSAFFYVPGVLSVPINVVICVLWVGLKTLPGPM | failed
15 | MVTIKEYSVPQSLEEAYKILISKKNNVILGGCGFIKLSNKNIGTAIDLKDINLNYIKEDEKNILIGADTSLRSLEIDKTIKNYCSGILSSAVSNIVGVQFRQGARIGASVFSKYGFSDLIPALLVVGAKVRLYNKGILELSEFLDSELSRDILVEVILPKKDAIAVFDSIRKCTGDFSVLNSAMLKENDTYKIAIGARPQKARLALEASNILNKEKDIDKASIVASKELTYGSNMRASKEYRKDMASALVKRMYNAIEEGMYND | failed
16 | MVTIPIFLAIIGATMMVVVWSAKQTKSAADFYTAGGGITGTQNGWAIAGDYMSAASFLGISGIISLYGYDGFMYSVGWLVAYITVLLIVAEPCRNAGKFTLGDILSFRTEPKSVRAAAAISTVAVSTFYLTAQMVGAGKLMQLLLGIPYKTAVIGVGILMVGYVVFGGMTATTWVQIIKAGLLMSGAALLSVLVGLKSGMSPFQFFNDIATSPNIIEHVQKVVLKDPVAVAGFDYGQRFLEPGLFLKNPLDQISLGMALVLGTAGMPHILMRFFTVPTAQAARKSVIIAMFIIGSFYILTTLLGFGAAIHVTPQSIMNVDKGGNMAAMMLAQQLGGDIHPFLGDLLLAFLCAVAFATILAVVSGLVLAASAAIAHDIYVNVIKGGHADQHEQVKAARITSFVVGACGIAIGIAAEKQNVAHLVALAFAVAASGNLPVVVLSLFWKKFNTAGVIAGLVTGTVVSIALVMVSPNMTYPKKVAEDAQKVVVKLEEKQAGGAVLTEKEMKDLGKAKADYEKNKDGKSFLGLDKPLFALKNPGVVSIPLGFIAAVIAALAFPSRRSEEMFDELYVRQNTGIGIAKAVDH | failed
17 | MVTPIAVVGPTASGKSALGIALAHKLDGEVVNVDSMQLYKGMDIGTAKLTVEEREGIAHHQLDVWDVTETASVARFQSDAVADVEDIMSRGKTPILVGGSMLYVQSLVDDWQFPPTDSAVRARFEARLADIGVEALHAELTQLDPEAAAVIESNDPRRTVRALEVIELTGQPFQASQPPKDAPPRWGTRIIGLKTTPEWLNPRIEQRTARMFEQGFVAEVEHLVQQGLIADSTAGRAIGYSQVLAAMAGEMTWEDAFERTVTGTRRYVRRQRSWFNRDHRVSWVDASGDPTAQALEILGLQLEHHHHHH | not failed
18 | MVTPSLRLVFVKGPREGDALDYKPGSTIRVGRIVRGNEIAIKDAGISTKHLRIESDSGNWVIQDLGSSNGTLLNSNALDPETSVNLGDGDVIKLGEYTSILVNFV | not failed
